The target of experiment [1] is T1, extracellular segment of the PRLR protein of cynomolgus monkey with avi-(his)6 tag (cynoPRLR-ECD-avi-his) (cynomolgus monkey).
T1 construct: The assays say only 'monomeric monkey PRLR extracellular domain / ECD'; also called cynomolgus monkey PRLR extracellular domain; Monkey PRLR
T1 chain: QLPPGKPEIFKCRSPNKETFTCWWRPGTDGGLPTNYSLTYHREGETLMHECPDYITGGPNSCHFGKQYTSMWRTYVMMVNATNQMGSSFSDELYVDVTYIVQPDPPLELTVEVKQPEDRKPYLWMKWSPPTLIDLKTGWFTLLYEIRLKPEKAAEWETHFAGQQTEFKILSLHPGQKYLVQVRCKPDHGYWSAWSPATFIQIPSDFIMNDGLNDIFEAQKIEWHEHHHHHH
As to the kind of experiment: ELISA, coated antigen 1 ug/mL, antibody 10 ug/mL. (In general: In an ELISA, binding on a coated surface is turned into a signal by an enzyme label.)

The target in experiment [2] is T2, recombinant mesothelin protein with the same tag.
T2 construct: Control antigen of the species-specific ELISA; also called Control protein
As to the kind of experiment: ELISA, coated antigen 1 ug/mL, antibody 10 ug/mL.

Experiment [3] has as its target T1, extracellular segment of the PRLR …. Briefly: ELISA, coated antigen 1 ug/mL.
Experiment [4] deals with T3, extracellular segment of human PRLR protein with avi-(his)6 tag (hPRLR-ECD-avi-his) (human, UniProt P16471 25-234).
T3 construct: The assays say only 'monomeric human PRLR extracellular domain / ECD'; also called human PRLR extracellular domain; monomeric PRLR ECD
T3 sequence: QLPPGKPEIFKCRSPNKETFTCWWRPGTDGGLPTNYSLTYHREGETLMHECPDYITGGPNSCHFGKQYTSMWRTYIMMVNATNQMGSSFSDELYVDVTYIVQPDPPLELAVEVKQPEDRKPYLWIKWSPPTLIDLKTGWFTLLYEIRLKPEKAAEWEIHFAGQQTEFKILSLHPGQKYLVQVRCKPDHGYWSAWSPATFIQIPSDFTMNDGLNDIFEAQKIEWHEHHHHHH
As to the kind of experiment: ELISA, coated antigen 1 ug/mL, antibody 10 ug/mL.

Experiment [5] addresses T3, extracellular segment of human PRLR …. Briefly: BLI (Octet), antibody on Protein A sensor, monomeric PRLR ECD in solution, 1:1 fit. (Biolayer interferometry detects binding as a change in optical thickness at a sensor tip.)
For experiment [6] the target is unchanged. As to the kind of experiment: BLI epitope binning on biotinylated human PRLR ECD, 100 nM each; competitor: P-PR-C07H-v; which axis is the first antibody is not stated.
For experiment [7] the target is unchanged. Briefly: BLI epitope binning on biotinylated human PRLR ECD, 100 nM each; competitor: P-PR-C05H-v2; which axis is the first antibody is not stated.
The target is the same in experiment [8]. Briefly: BLI, biotinylated monomeric PRLR ECD on streptavidin sensor, antibody 3.125-100 nM in solution, 1:1 fit.
The target of experiment [9] is T1, extracellular segment of the PRLR …. The experiment is described as above.
Experiment [10] concerns the target T4, human PRLR expressed on cells (human, UniProt P16471 25-622).
T4 sequence: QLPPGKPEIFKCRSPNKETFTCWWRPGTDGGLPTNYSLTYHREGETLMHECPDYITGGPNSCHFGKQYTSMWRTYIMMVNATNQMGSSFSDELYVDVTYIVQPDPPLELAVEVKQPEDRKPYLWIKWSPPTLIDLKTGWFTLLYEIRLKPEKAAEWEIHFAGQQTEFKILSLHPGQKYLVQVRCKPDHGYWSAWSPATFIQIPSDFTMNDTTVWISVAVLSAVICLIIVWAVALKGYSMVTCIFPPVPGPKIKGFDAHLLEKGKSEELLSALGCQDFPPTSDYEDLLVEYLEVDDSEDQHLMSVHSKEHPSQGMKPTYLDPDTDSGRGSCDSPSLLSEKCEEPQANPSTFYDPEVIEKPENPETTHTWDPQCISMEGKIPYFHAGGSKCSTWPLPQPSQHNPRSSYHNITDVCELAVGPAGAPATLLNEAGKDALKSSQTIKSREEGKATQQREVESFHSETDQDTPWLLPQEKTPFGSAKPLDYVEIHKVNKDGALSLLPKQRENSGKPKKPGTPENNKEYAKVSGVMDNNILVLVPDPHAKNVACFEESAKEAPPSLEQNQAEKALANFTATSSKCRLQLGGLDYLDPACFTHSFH
Briefly: cell-based or functional assay.

For experiment [11], the target named is T3, extracellular segment of human PRLR …. As to the kind of experiment: BLI epitope binning on biotinylated human PRLR ECD, 100 nM each; competitor: HP-PR01D12-v; which axis is the first antibody is not stated.

B1: HP-PR01B01 (antibody, V domains shown)
VH: EVHLVESGPDLVKPSQSLSLTCTVTGYSITSGYNWHWIRQFPGNKLEWMGYIHYSGSTKYDPSLKSRISFTRDTSRNQFFLQLNSVTTEDRATYYCARSEAGGYSWFAYWGQGTLVTVSA
VL: DIVMTQSPAIMSASPGEKVTMACSASSSVNYMHWYQQKSGTSPKRWIYDTSKLASGVPARFSGSGSGTSYSLTISSMEAEDAATYYCQQWSSNPLTFGAGTKLELK
notes: also called Antibody No. 23
In the case of B1, the “absorbance at 450nm” value in [1] was determined as 0.077; in experiment [2], 0.076. In [3], the binding result is recorded as “no binding (tested: 10 µg/mL)”.

B2: P-PR-D06H (antibody, V domains shown)
VH: QVQLQQPGSELVRPGASVKLSCKASGFTFTTFWVHWVKQRPGQGLEWIGNISPGSTSTNYNEKFKNKASLTVDTFSNTAYMQLSSLTSEDSAVYYCIRHSGNYFNAMDYWGQGTTLTVSS
VL: DIVMTQAAPSVPVTPGESVTISCRSSKSLLHSNGKTYLYWFLQRPGQSPQLLIYWMSNLASGVPDRFSGSGSGTAFTLRISRVEAEDVGVYYCMQHLEYPFTFGVGTKLELK
notes: also called Antibody No. 16; P-PR-D06W
A word on the Kd: it is the equilibrium constant for the complex coming apart. As a reminder, the koff is the first-order rate constant of dissociation. As usually defined, the kon is the rate constant with which the complex forms. With B2, the “absorbance at 450nm” value in experiment [4] worked out at 2.48. In [2], the “absorbance at 450nm” value is 0.137. In experiment [5], this molecule came in with a Kd of 3.38 nM, a koff of 0.000389 s⁻¹ and a kon of 115000 M⁻¹ s⁻¹.

B3: P-PR-C07H (antibody, V domains shown)
VH: EVQLQQSGAELVRPGTSVQISCKASGYTFTNNWLAWIKQRPGHGLEWIGDIYPGGVYTNYNEKFKGKATLTADTSSSTAYMQLSSLTSEDSAVYFCYYGDFWSAYWGQGTLVTVSA
VL: DIVMTQAAPSVPVTPGESVSISCRSSKSLLHSNGNTYLYWFLQRPGQSPQLLIYRMSNLASGVPDRFSGSGSGTAFTLRISRVEAEDVGVYYCMQHLEYPLTFGAGTKLELK
notes: also called Antibody No. 5
In the case of B3, the “absorbance at 450nm” value in experiment [4] was found to be 2.29. For the same molecule, the “absorbance at 450nm” value in [2] is 0.062. In [5], this molecule showed a Kd of 3.64 nM, a koff of 0.000386 s⁻¹ and a kon of 106000 M⁻¹ s⁻¹.

B4: P-PR-C05H-v2 (antibody, V domains shown)
VH: EVQLVQSGAEVKKPGASVKVSCKASGFTFTTFWVHWVRQAPGQGLEWIGNIAPGSTSTNYAQKFQGRATLTVDTSISTAYMELSSLRSEDTAVYYCIRHSGNYFNAMDYWGQGTLVTVSS
VL: DIVMTQSPLSLPVTPGEPASISCRSSKSLLHSNGNTYLYWFLQKPGQSPQLLIYRMSNRASGVPDRFSGSGSGTDFTLKISRVEAEDVGVYYCMQHLEYPLTFGQGTKVEIK
notes: Humanized antibody from P-PR-C05H; also called Antibody No. 25; Anti-P-PR-C05H-v2
As to B4, the “ratio of the binding signal of the second antibody to the reference” value (“ratio” for short) came out at 35% in [6], 11.2% in experiment [7] and 15.5% in [11]. In addition, the Kd in experiment [8] and in experiment [9] was < 0.001 nM throughout. In addition, the figures for the koff in [8] and in [9] were 5.03e-07 s⁻¹ and 4.08e-07 s⁻¹, respectively. In addition, the kon in [8] was determined as 937000 M⁻¹ s⁻¹; in experiment [9], 1.04e+06 M⁻¹ s⁻¹. For the same molecule, in [10], the “Blocking percentage (%) of 100 nM antibody (STAT5 luciferase reporter)” value (from here on “Blocking percentage (%)”) is 17.3%.

B5: P-PR-C07H-v (antibody, V domains shown)
VH: EVQLVQSGAEVKKPGSSVKVSCKASGYTFTNNWLAWIRQAPGQGLEWIGDIYPGGVYTNYNQKFQGRATLTADTSTSTAYMELSSLRSEDTAVYFCYYGDFWSAYWGQGTLVTVSS
VL: DIVMTQSPLSLPVTPGEPASISCRSSKSLLHSNGNTYLYWFLQKPGQSPQLLIYRMSNRASGVPDRFSGSGSGTDFTLKISRVEAEDVGVYYCMQHLEYPLTFGQGTKVEIK
notes: Humanized antibody from P-PR-C07H; also called Antibody No. 26; hP-PR-C07H-v
Regarding B5, the “ratio” value in experiment [6] was found to be 13.4%; in experiment [7], 52.7%; in experiment [11], 49.8%. For the same molecule, the dissociation constant Kd is 3.94 nM in [8] and < 0.001 nM in [9]. The results for the off-rate (koff) in experiment [8] and in [9] were 0.0032 s⁻¹ and 4.19e-07 s⁻¹, respectively. Besides, the kon in experiment [8] was 813000 M⁻¹ s⁻¹; in experiment [9], 663000 M⁻¹ s⁻¹. In addition, the “Blocking percentage (%)” value in experiment [10] was determined as 100%.

B6: HP-PR02H02 (antibody, V domains shown)
VH: EVMLVESGGGLVKPGGSLKLACAASGFTFSSYTMSWVRQTPEKRLEWVATISSGGSYTYYPDSVKGRFTISRDNAKNTLYLQLSSLKSEDTAMYYCTRDRYYSTTPDWYFDVWGAGTTLTVSS
VL: DIVITQSPATLSVTPGDSVSLSCRATQIIFNNLHWYQQKSHESPRLLITYTSQSISGIPSRFSGSGSGTDFTLTINSVETEDFGMYFCQQSNTWPRTFGGGTKLEIK
notes: also called Antibody No. 21
B6: the “absorbance at 450nm” value in experiment [1] is 0.097; in experiment [2], 0.076. Besides, the binding result in experiment [3] is on record as “no binding (tested: 10 µg/mL)”.

B7: HP-PR01D12-v (antibody, V domains shown)
VH: EVQLVESGGGLVQPGGSLRLSCAASGFTFSSFGMNWVRQAPGKGLEWVAYISSGSSIIYYADSVKGRFTISRDNSKNTLYLQMNSLRAEDTAVYYCTRFYGYIPFDYWGQGTLVTVSS
VL: DIQMTQSPSSLSASVGDRVTITCRASSSLIYLHWYQQKPGKAPKLWIYDTSKLASGVPSRFSGSGSGNDYTLTISSLQPEDFATYYCFQGSGYPLTFGQGTKVEIK
notes: also called Antibody No. 27; hHP-PR01D12-v
In the case of B7, the “ratio” value in [6] turned out to be 31.8%; in experiment [7], 9.2%; in [11], 14.4%. Besides, the Kd in [8] was 0.00113 nM; in [9], < 0.001 nM. The off-rate (koff) in [8] worked out at 4.88e-07 s⁻¹; in experiment [9], 3.43e-07 s⁻¹. Moreover, the kon turned out to be 431000 M⁻¹ s⁻¹ in experiment [8] and 453000 M⁻¹ s⁻¹ in [9]. Besides, the “Blocking percentage (%)” value in [10] turned out to be 46.7%.

The values above are taken from patent EP4703383A1 (Shenzhen Genuine Biomedical Technology Co., Ltd, dated 2026).
